Test results from article PMC2802658 (Biochemistry, 2010).
Where two headings read alike, the source gives them in different places. Blank lines part the entries; values can stand above or below the compound they belong to.

Tests used:
[1] = target: T1, cation-dependent mannose 6-phosphate receptor (sCD-MPR) (Bos taurus, UniProt P11456, N59Q/N85Q/N96Q/N115Q); assay: […]-1H HSQC NMR titration; format: binding
T1 sequence (P11456 29-182 N59Q/N85Q/N96Q/N115Q): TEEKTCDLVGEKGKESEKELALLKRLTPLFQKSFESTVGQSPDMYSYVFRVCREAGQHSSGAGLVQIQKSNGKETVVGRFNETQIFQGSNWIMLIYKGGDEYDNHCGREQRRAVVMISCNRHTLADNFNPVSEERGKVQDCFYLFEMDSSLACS

[2] = target: β-glucuronidase (Homo sapiens) (UniProt P08236); conditions: cited from earlier work
β-glucuronidase (Homo sapiens), sequence (P08236 23-651): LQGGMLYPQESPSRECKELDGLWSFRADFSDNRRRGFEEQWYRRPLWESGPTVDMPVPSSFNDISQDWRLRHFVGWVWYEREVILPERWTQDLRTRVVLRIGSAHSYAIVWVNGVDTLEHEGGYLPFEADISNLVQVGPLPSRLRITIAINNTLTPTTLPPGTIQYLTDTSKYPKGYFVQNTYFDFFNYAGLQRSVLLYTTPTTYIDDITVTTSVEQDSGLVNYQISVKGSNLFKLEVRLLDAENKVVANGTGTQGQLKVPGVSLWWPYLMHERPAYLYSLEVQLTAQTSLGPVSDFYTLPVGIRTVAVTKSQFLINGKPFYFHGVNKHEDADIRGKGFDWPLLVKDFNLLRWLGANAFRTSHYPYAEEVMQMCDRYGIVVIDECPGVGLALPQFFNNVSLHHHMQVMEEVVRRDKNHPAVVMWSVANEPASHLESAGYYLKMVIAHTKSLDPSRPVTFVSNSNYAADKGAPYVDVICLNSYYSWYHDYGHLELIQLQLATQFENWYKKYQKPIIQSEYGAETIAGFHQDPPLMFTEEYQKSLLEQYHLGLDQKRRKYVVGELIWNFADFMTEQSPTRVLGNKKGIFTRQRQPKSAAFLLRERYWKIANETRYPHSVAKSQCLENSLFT

[3] = target: β-glucuronidase (Homo sapiens) (UniProt P08236); conditions: cited from earlier work; remark: listed apart in the source
[4] = target: β-glucuronidase (Homo sapiens) (UniProt P08236); conditions: cited from earlier work; remark: listed apart in the source

Kd [1]: ~1000 µM
Compound: O=P(O)(O)OC[C@H]1OC(O)[C@@H](O)[C@@H](O)[C@@H]1O (stereo partly shown) [mannose 6-phosphate]

Compound: cation-dependent mannose 6-phosphate receptor (from UniProt P11456)
Kd [2]: 0.00028 µM

Compound: cation-dependent mannose 6-phosphate receptor (sCD-MPR) ECD (from UniProt P11456)
Kd [3]: 0.0014 µM

Compound: cation-dependent mannose 6-phosphate receptor (sCD-MPRHis6) ECD (from UniProt P11456)
Kd [4]: 0.0015 µM
